Laboratory results published in patent US12319739 (F STAR DELTA, dated 2025).
Numbering of substitutions follows the chain as printed.

B1: FS22-172-003-AA/FS28-256-024 (bispecific antibody, human IgG1, kappa, L234A L235A, V domains shown)
VH: EVQLLESGGGLVQPGGSLRLSCAASGFTFTHTYMSWVRQAPGKGLEWVSNISPTYSTTNYADSVKGRFTISRDNNKNTLYLQMNSLRAEDTAVYYCARYNAYHAALDYWGQGTLVTVSS
VL: EIVLTQSPGTLSLSPGERATLSCRASQSVSSSYLAWYQQKPGQAPRLLIYGASSRATGIPDRFSGSGSGTDFTLTISRLEPEDFAVYYCQQALGYPHTFGQGTKVEIKR
notes: IgG1 mAb^2 with LALA
B2: FS22-172-003-AA/FS28-256-272 (bispecific antibody, human IgG1, kappa, L234A L235A, V domains shown)
VH: B1 VH with N50H
VL: B1 VL with A92T, L93V, G94P, H97Y
notes: IgG1 mAb^2 with LALA
B3: FS22-172-003-AA/FS28-256-026 (bispecific antibody, human IgG1, kappa, L234A L235A, V domains shown)
VH: B1 VH with H31Q, N75S, H103Q, A104I, A105G
VL: B1 VL
notes: IgG1 mAb^2 with LALA
B4: FS28-256-274 (in CD137 mAb^2 format) (bispecific antibody, V domains shown)
VH: B1 VH with N50T
VL: B1 VL with A92T, L93V, G94P, H97Y
notes: Position 55 is IMGT numbering
B5: FS22-172-003-AA/FS28-256-027 (bispecific antibody, human IgG1, kappa, L234A L235A, V domains shown)
VH: B1 VH
VL: B1 VL with A92T, L93V, G94P, H97Y
notes: IgG1 mAb^2 with LALA
B6: FS22-172-003-AA/FS28-256-273 (bispecific antibody, human IgG1, kappa, L234A L235A, V domains shown)
VH: B1 VH with N50S
VL: B1 VL with A92T, L93V, G94P, H97Y
notes: IgG1 mAb^2 with LALA
B7: 20H4.9 (antibody, V domains shown)
VH: QVQLQQWGAGLLKPSETLSLTCAVYGGSFSGYYWSWIRQSPEKGLEWIGEINHGGYVTYNPSLESRVTISVDTSKNQFSLKLSSVTAADTAVYYCARDYGPGNYDWYFDLWGRGTLVTVSS
VL: EIVLTQSPATLSLSPGERATLSCRASQSVSSYLAWYQQKPGQAPRLLIYDASNRATGIPARFSGSGSGTDFTLTISSLEPEDFAVYYCQQRSNWPPALTFGGGTKVEIKR

Legend:
[1] = molecular target: T1, hMSLN-His-Avi (human, UniProt Q13421 296-598, single biotin on the Avi tag in the biotinylated form); assay: ratio of SPR KDs
T1 construct: Monomeric; also called human MSLN-His-Avi; hMSLN-Avi-His
T1 sequence (Q13421 other isoform, or with tags, fused parts or gaps): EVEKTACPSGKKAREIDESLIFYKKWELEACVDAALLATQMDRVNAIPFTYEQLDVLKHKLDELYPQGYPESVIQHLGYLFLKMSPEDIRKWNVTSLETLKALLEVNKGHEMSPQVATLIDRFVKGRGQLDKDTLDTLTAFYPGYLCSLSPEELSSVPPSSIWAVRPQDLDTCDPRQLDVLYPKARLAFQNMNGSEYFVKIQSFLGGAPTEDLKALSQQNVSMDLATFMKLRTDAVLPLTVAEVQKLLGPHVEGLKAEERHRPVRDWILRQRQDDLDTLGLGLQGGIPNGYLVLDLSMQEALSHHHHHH
Method: (§1) 7.1 Binding of CD137/MSLN mAb2 to Human MSLN Under Avid Conditions—Antigen Capture Method Binding of all mAb^2 to MSLN immobilised on a BIAcore chip was tested to determine the binding affinity to human MSLN under avid conditions, where a high concentration of immobilised antigen is available to allow the antibody to bind avidly. […] The association time was 5 min and the dissociation time was 10 min. Running buffer was HBS-EP (GE Healthcare BR100188). Flow cells were regenerated by injecting Glycine-HCl pH1.5 at a flow rate of 30 μl/min for 30 seconds. Data were analysed by double referencing against a flow cell which was intentionally left blank (no antigen coating). The binding kinetics were fitted with a 1:1 Langmuir model to generate binding association (k_a) and dissociation (k_d) rates. Equilibrium binding constants (K_D) were calculated by dividing the dissociation rate by the association rate for each sample. Data analysis was performed with BiaEvaluation software version 3.2.
(§2) The association time was 5 min and the dissociation time was 5 min. Running buffer was HBS-EP (GE Healthcare BR100188). Flow cells were regenerated by injecting Glycine-HCl pH2.1 at a flow rate of 30 μl/min for 15 seconds. The data was analysed as described in Example 7.1.

[2] = molecular target: T2, human CD137 on primary human CD8+ T cells (human, UniProt Q07011 24-255); assay: cell-based or functional assay
T2 sequence (Q07011 24-255): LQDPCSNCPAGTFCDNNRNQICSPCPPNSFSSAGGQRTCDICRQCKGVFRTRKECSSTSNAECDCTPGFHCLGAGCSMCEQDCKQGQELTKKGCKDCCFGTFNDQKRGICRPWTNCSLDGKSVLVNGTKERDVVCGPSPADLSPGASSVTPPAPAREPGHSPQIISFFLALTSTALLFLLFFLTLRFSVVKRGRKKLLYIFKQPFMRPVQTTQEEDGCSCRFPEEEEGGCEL

[3] = molecular target: T3, endogenous cell surface human MSLN (human, UniProt Q13421 296-598); assay: flow cytometry, NCI-H226 cells
T3 construct: whole, on cells; The cell line is named under assay; also called cell-surface MSLN on NCI-H226, OVCAR-3 and AsPC-1 cells
T3 sequence (Q13421 other isoform, or with tags, fused parts or gaps limits assumed): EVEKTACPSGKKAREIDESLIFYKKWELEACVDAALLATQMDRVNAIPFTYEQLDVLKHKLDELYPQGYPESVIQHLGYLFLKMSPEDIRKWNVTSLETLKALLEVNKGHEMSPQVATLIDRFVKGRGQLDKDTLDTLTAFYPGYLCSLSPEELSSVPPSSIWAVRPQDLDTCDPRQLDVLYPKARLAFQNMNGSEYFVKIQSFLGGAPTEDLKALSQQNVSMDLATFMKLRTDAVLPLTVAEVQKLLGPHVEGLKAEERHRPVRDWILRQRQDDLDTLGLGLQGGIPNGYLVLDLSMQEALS
Method: (§3) To confirm binding to cell surface MSLN, mAb² listed in Table 9 were analysed for binding to endogenous cell surface MSLN on the human lung cancer cell line NCI-H226. In addition, and because MSLN can be found in blood in a shed soluble form, there is a risk that this circulating MSLN might affect exposure and ultimately potency of our mAb². To confirm that presence of soluble MSLN has minimal impact, additional binding experiments to NCI-H226 cells were performed in the presence of 20 nM soluble MSLN which is 10-20 times the level of soluble MSLN found to be of diagnostic value for defining malignant mesothelioma and lung cancer patients as MSLN positive (Cui et al., 2014). Briefly, NCI-H226 cells (ATCC CRL-5826) were harvested from T175 cell culture flasks using Accutase (Gibco, A11105-01).
(§4) In both cases, cells were centrifuged at 1200 rpm for 3 min and resuspended in ice cold FACS buffer made up of DPBS (Life Technologies, 14190169) and 1% BSA (Sigma-Aldrich, A7906) at 2×10⁶ cells/ml and 50 μl per well was seeded in a 96-well V-bottom plate (Costar, 3894). All antibodies tested were diluted in FACS buffer in 120 μl at a concentration range of 0.01-200 nM (4-fold dilutions). The NCI-H226 cells were then centrifuged, supernatant removed and cells resuspended in 100 μl of each mAb dilution and incubated at 4° C. for 45 min. Cells were washed twice by centrifugation with 150 μl FACS buffer, resuspended in 100 μl containing goat anti-human IgG (γ-chain specific) F(ab')2 fragment-R-Phycoerythrin antibody (Sigma, P8047) diluted 1:1000 in FACS buffer and incubated at 4° C. for 45 min. The cells were washed once with 150 μl FACS buffer and then with 150 μl DPBS, resuspended in 150 μl DPBS containing DAPI (Biotium, 40043) at 1:10.000 and read on the BDCantoII or iQue (Intellicyt).

[4] = molecular target: T3, endogenous cell surface human MSLN; assay: flow cytometry, NCI-H226 cells + 20 nM soluble MSLN
Method: as §3, §4

[5] = molecular target: T1, hMSLN-His-Avi; assay: SPR, hMSLN-His-Avi immobilised ~100 RU, mAb2 injected
Method: as §1

[6] = molecular target: T4, cMSLN-His-Avi (cynomolgus, single biotin on the Avi tag in the biotinylated form); assay: SPR, mAb2 captured on Protein G, cMSLN-His-Avi in solution
T4 construct: Monomeric; also called cyno MSLN-His-Avi; cMSLN-Avi-His
T4 chain: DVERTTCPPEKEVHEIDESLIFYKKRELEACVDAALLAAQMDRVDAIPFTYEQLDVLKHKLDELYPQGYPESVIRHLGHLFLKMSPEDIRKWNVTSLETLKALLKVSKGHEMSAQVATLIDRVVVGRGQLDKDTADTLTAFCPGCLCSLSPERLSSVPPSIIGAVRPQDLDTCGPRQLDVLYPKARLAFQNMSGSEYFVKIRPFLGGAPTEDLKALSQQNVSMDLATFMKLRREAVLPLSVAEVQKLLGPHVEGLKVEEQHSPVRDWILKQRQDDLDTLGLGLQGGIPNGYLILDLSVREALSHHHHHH
Method: as §2

[7] = molecular target: T1, hMSLN-His-Avi; assay: SPR, mAb2 captured on Protein G, hMSLN-His-Avi in solution
Method: as §2

[8] = molecular target: T1, hMSLN-His-Avi; assay: ratio of SPR KDs; remark: listed apart in the source
[9] = molecular target: T2, human CD137 on primary human CD8+ T …; assay: cell-based or functional assay; remark: listed apart in the source
[10] = molecular target: T2, human CD137 on primary human CD8+ T …; assay: cell-based or functional assay; remark: listed apart in the source
[11] = molecular target: T1, hMSLN-His-Avi; assay: SPR, hMSLN-His-Avi immobilised
[12] = molecular target: T1, hMSLN-His-Avi; assay: SPR, hMSLN-His-Avi in solution

Binder	KD ratio in solution/immobilised human MSLN [1]	Emax (IL-2 pg/ml), NCI-H226 co-culture, Donor A [2] [pg/mL]	Emax (IL-2 pg/ml), NCI-H226 co-culture, Donor B [2] [pg/mL]	IL-2 release EC50, NCI-H226 co-culture, Donor A [2] [nM]	IL-2 release EC50, NCI-H226 co-culture, Donor B [2] [nM]	EC50 [3] [nM]	Emax (MFI) [3] [MFI]	EC50 [4] [nM]	Emax (MFI) [4] [MFI]	Kd [5] [nM]	Kd [6] [nM]	Kd [7] [nM]	ratio of KD in solution/immobilised [8]	fold change of IL-2 EC50 with 20 nM sMSLN against none, NCI-H226 co-culture [9] [fold]	IL-2 release EC50, NCI-H226 co-culture, +2 nM sMSLN [10] [nM]	IL-2 release EC50, NCI-H226 co-culture, +20 nM sMSLN [10] [nM]	IL-2 release EC50, NCI-H226 co-culture, no sMSLN [10] [nM]	Kd [11] [nM]	Kd [12] [nM]	IL-2 release EC50, CD8+ T cell assay [9] [nM]
B1	18	2120	1090	1.29	0.61	3.4	647000	5.24	675000	4.74	57.2	86.6								
B2	0.7									10.7		7.6	0.7	> 4	0.13	0.684	0.122	10.7	7.6	
B3	18	2060	932	0.67	0.23	1.47	634000	2.68	688000	3.19	33.1	57.9								
B4													2.8					19.8	55.9	
B5	7	2110		0.05		0.613	801000	2.31	686000	0.78	1.06	5.84		6.6						
B6	1.2									6		7.4	1.2	> 4	0.0616	0.366	0.0791	6	7.4	
B7																				0.5
